{"source": "patent US20130209454A1", "about": "(CALIFORNIA INSTITUTE OF TECHNOLOGY, published 2013)", "assay_in_all_cases": "cell-based or functional assay", "key": {"[1]": {"molecular_target": "HIV-1 Env of strain 1006_11_C3_1601 (HIV-1)"}, "[2]": {"molecular_target": "HIV-1 Env of strain 3415.v1.c1 (HIV-1)"}, "[3]": {"molecular_target": "HIV-1 Env of strain X1193_c1 (HIV-1)"}, "[4]": {"molecular_target": "HIV-1 Env of strain Du156.12 (HIV-1)"}, "[5]": {"molecular_target": "HIV-1 Env of strain RHPA4259.7 (HIV-1)"}, "[6]": {"molecular_target": "HIV-1 Env of strain ZM249M.PL1 (HIV-1)"}, "[7]": {"molecular_target": "HIV-1 Env of strain 0815.v3.c3 (HIV-1)"}, "[8]": {"molecular_target": "HIV-1 Env of strain 3301.v1.c24 (HIV-1)"}, "[9]": {"molecular_target": "HIV-1 Env of strain Q769.d22 (HIV-1)"}, "[10]": {"molecular_target": "HIV-1 Env of strain CNE53 (HIV-1)"}, "[11]": {"molecular_target": "HIV-1 Env of strain 6545.v4.cl (HIV-1)"}, "[12]": {"molecular_target": "HIV-1 Env of strain CAP45.2.00.G3 (HIV-1)"}, "[13]": {"molecular_target": "HIV-1 Env of strain CAP210.2.00.E8 (HIV-1)"}, "[14]": {"molecular_target": "HIV-1 Env of strain T250-4 (HIV-1)"}, "[15]": {"molecular_target": "HIV-1 Env of strain 3718.v3.c11 (HIV-1)"}, "[16]": {"molecular_target": "HIV-1 Env of strain 703357.C02 (HIV-1)"}, "[17]": {"molecular_target": "HIV-1 Env of strain C2101.c01 (HIV-1)"}, "[18]": {"molecular_target": "HIV-1 Env of strain ZM233M.PB6 (HIV-1)"}, "[19]": {"molecular_target": "HIV-1 Env of strain TRO.11 (HIV-1)"}, "[20]": {"molecular_target": "HIV-1 Env of strain QH0692.42 (HIV-1)"}, "[21]": {"molecular_target": "HIV-1 Env of strain T255-34 (HIV-1)"}, "[22]": {"molecular_target": "HIV-1 Env of strain ZM135M.PL10a (HIV-1)"}, "[23]": {"molecular_target": "HIV-1 Env of strain AC10.0.29 (HIV-1)"}, "[24]": {"molecular_target": "HIV-1 Env of strain CNE58 (HIV-1)"}, "[25]": {"molecular_target": "HIV-1 Env of strain R1166.c01 (HIV-1)"}, "[26]": {"molecular_target": "HIV-1 Env of strain CNE17 (HIV-1)"}, "[27]": {"molecular_target": "HIV-1 Env of strain X2131_C1_B5 (HIV-1)"}, "[28]": {"molecular_target": "HIV-1 Env of strain 928-28 (HIV-1)"}, "[29]": {"molecular_target": "HIV-1 Env of strain ZM53M.PB12 (HIV-1)"}, "[30]": {"molecular_target": "HIV-1 Env of strain ZM214M.PL15 (HIV-1)"}, "[31]": {"molecular_target": "HIV-1 Env of strain Ce703010054_2A2 (HIV-1)"}, "[32]": {"molecular_target": "HIV-1 Env of strain Q23.17 (HIV-1)"}, "[33]": {"molecular_target": "HIV-1 Env of strain PVO.4 (HIV-1)"}, "[34]": {"molecular_target": "HIV-1 Env of strain ZM109F.PB4 (HIV-1)"}, "[35]": {"molecular_target": "HIV-1 Env of strain 0330.v4.c3 (HIV-1)"}, "[36]": {"molecular_target": "HIV-1 Env of strain Q461.e2 (HIV-1)"}, "[37]": {"molecular_target": "HIV-1 Env of strain SC422661.8 (HIV-1)"}, "[38]": {"molecular_target": "HIV-1 Env of strain WITO4160.33 (HIV-1)"}, "[39]": {"molecular_target": "HIV-1 Env of strain Ce2060_G9 (HIV-1)"}, "[40]": {"molecular_target": "HIV-1 Env of strain Ce0682_E4 (HIV-1)"}, "[41]": {"molecular_target": "HIV-1 Env of strain 6811.v7.c18 (HIV-1)"}, "[42]": {"molecular_target": "HIV-1 Env of strain R2184.c04 (HIV-1)"}, "[43]": {"molecular_target": "HIV-1 Env of strain 6480.v4.c25 (HIV-1)"}}}
{"binder": "NIH45-46 IgG (antibody, V domains shown) VH: QVRLSQSGGQMKKPGESMRLSCRASGYEFLNCPINWIRLAPGRRPEWMGWLKPRGGAVNYARKFQGRVTMTRDVYSDTAFLELRSLTSDDTAVYFCTRGKYCTARDYYNWDFEHWGRGAPVTVSS VL: EIVLTQSPATLSLSPGETAIISCRTSQSGSLAWYQQRPGQAPRLVIYSGSTRAAGIPDRFSGSRWGADYNLSISNLESGDFGVYYCQQYEFFGQGTKVQVDI", "values": [{"measurement": "neutralization IC50", "setting": "[1]", "result": 0.027, "unit": "µg/mL"}, {"measurement": "neutralization IC50", "setting": "[2]", "result": 0.022, "unit": "µg/mL"}, {"measurement": "neutralization IC50", "setting": "[3]", "result": 0.021, "unit": "µg/mL"}, {"measurement": "neutralization IC50", "setting": "[4]", "result": 0.02, "unit": "µg/mL"}, {"measurement": "neutralization IC50", "setting": "[5]", "result": 0.017, "unit": "µg/mL"}, {"measurement": "neutralization IC50", "setting": "[6]", "result": 0.017, "unit": "µg/mL"}, {"measurement": "neutralization IC50", "setting": "[7]", "result": 0.014, "unit": "µg/mL"}, {"measurement": "neutralization IC50", "setting": "[8]", "result": 0.009, "unit": "µg/mL"}, {"measurement": "neutralization IC50", "setting": "[9]", "result": 0.009, "unit": "µg/mL"}, {"measurement": "neutralization IC50", "setting": "[10]", "result": 0.008, "unit": "µg/mL"}, {"measurement": "neutralization IC50", "setting": "[11]", "result": "> 50", "unit": "µg/mL"}, {"measurement": "neutralization IC50", "setting": "[12]", "result": "> 50", "unit": "µg/mL"}, {"measurement": "neutralization IC50", "setting": "[13]", "result": "> 50", "unit": "µg/mL"}, {"measurement": "neutralization IC50", "setting": "[14]", "result": "> 50", "unit": "µg/mL"}, {"measurement": "neutralization IC50", "setting": "[15]", "result": 19.6, "unit": "µg/mL"}, {"measurement": "neutralization IC50", "setting": "[16]", "result": 19.2, "unit": "µg/mL"}, {"measurement": "neutralization IC50", "setting": "[17]", "result": 4.24, "unit": "µg/mL"}, {"measurement": "neutralization IC50", "setting": "[18]", "result": 2.5, "unit": "µg/mL"}, {"measurement": "neutralization IC50", "setting": "[19]", "result": 1.61, "unit": "µg/mL"}, {"measurement": "neutralization IC50", "setting": "[20]", "result": 0.72, "unit": "µg/mL"}, {"measurement": "neutralization IC50", "setting": "[21]", "result": 0.71, "unit": "µg/mL"}, {"measurement": "neutralization IC50", "setting": "[22]", "result": 0.59, "unit": "µg/mL"}, {"measurement": "neutralization IC50", "setting": "[23]", "result": 0.56, "unit": "µg/mL"}, {"measurement": "neutralization IC50", "setting": "[24]", "result": 0.43, "unit": "µg/mL"}, {"measurement": "neutralization IC50", "setting": "[25]", "result": 0.31, "unit": "µg/mL"}, {"measurement": "neutralization IC50", "setting": "[26]", "result": 0.261, "unit": "µg/mL"}, {"measurement": "neutralization IC50", "setting": "[27]", "result": 0.23, "unit": "µg/mL"}, {"measurement": "neutralization IC50", "setting": "[28]", "result": 0.23, "unit": "µg/mL"}, {"measurement": "neutralization IC50", "setting": "[29]", "result": 0.175, "unit": "µg/mL"}, {"measurement": "neutralization IC50", "setting": "[30]", "result": 0.17, "unit": "µg/mL"}, {"measurement": "neutralization IC50", "setting": "[31]", "result": 0.159, "unit": "µg/mL"}, {"measurement": "neutralization IC50", "setting": "[32]", "result": 0.14, "unit": "µg/mL"}, {"measurement": "neutralization IC50", "setting": "[33]", "result": 0.12, "unit": "µg/mL"}, {"measurement": "neutralization IC50", "setting": "[34]", "result": 0.095, "unit": "µg/mL"}, {"measurement": "neutralization IC50", "setting": "[35]", "result": 0.09, "unit": "µg/mL"}, {"measurement": "neutralization IC50", "setting": "[36]", "result": 0.076, "unit": "µg/mL"}, {"measurement": "neutralization IC50", "setting": "[37]", "result": 0.06, "unit": "µg/mL"}, {"measurement": "neutralization IC50", "setting": "[38]", "result": 0.06, "unit": "µg/mL"}, {"measurement": "neutralization IC50", "setting": "[39]", "result": 0.058, "unit": "µg/mL"}, {"measurement": "neutralization IC50", "setting": "[40]", "result": 0.054, "unit": "µg/mL"}, {"measurement": "neutralization IC50", "setting": "[41]", "result": 0.035, "unit": "µg/mL"}, {"measurement": "neutralization IC50", "setting": "[42]", "result": 0.034, "unit": "µg/mL"}, {"measurement": "neutralization IC50", "setting": "[43]", "result": 0.032, "unit": "µg/mL"}]}
